Data: the Immune Epitope Database (IEDB)

Assays:
HLA-A*02:11 [1] = experiment: IEDB peptide-MHC binding, purified MHC/competitive/fluorescence; filed as Kd, often an IC50 or EC50 that approximates it; ≥ and ≤ were set here for values at or beyond the usual limits of such assays
HLA-B*15:01 [2] = experiment: as above; details: source organism: Salmonella enterica subsp. enterica serovar Typhimurium str. LT2
HLA-B*51:01 = experiment: as above
HLA-A*26:01 = experiment: as above
HLA-A*02:12 [3] = experiment: as above; details: source organism: Salmonella enterica subsp. enterica serovar Typhimurium str. LT2
HLA-A*03:01 [4] = experiment: as above; details: source organism: Salmonella enterica subsp. enterica serovar Typhimurium str. LT2
HLA-A*29:02 [5] = experiment: as above; details: source organism: Salmonella enterica subsp. enterica serovar Typhimurium str. LT2
HLA-B*46:01 [6] = experiment: as above
HLA-B*18:01 [7] = experiment: as above
HLA-A*02:19 [8] = experiment: as above; details: source organism: Salmonella enterica subsp. enterica serovar Typhimurium str. LT2
HLA-A*24:03 = experiment: as above
HLA-B*27:03 = experiment: as above
HLA-A*69:01 [9] = experiment: as above
HLA-A*23:01 [10] = experiment: as above; details: source organism: Salmonella enterica subsp. enterica serovar Typhimurium str. LT2
HLA-B*39:01 = experiment: as above
HLA-B*57:01 [11] = experiment: as above
HLA-B*15:17 = experiment: as above
HLA-B*15:01 [12] = experiment: IEDB peptide-MHC binding, purified MHC/direct/fluorescence; filed as Kd, often an IC50 or EC50 that approximates it; ≥ and ≤ were set here for values at or beyond the usual limits of such assays
HLA-B*15:09 = experiment: as above
HLA-B*44:02 = experiment: as above
HLA-A*03:01 [13] = experiment: as above
HLA-A*02:01 [14] = experiment: as above
HLA-B*46:01 [15] = experiment: as above
HLA-B*40:01 = experiment: as above
HLA-B*18:01 [16] = experiment: as above
HLA-A*01:01 = experiment: as above
HLA-A*31:01 = experiment: as above; details: source organism: Yellow fever virus 17D
HLA-A*11:01 = experiment: as above; details: source organism: Yellow fever virus 17D
HLA-A*69:01 [17] = experiment: as above
HLA-B*48:01 = experiment: as above; details: source organism: Yellow fever virus 17D
HLA-B*58:01 = experiment: as above
HLA-B*57:01 [18] = experiment: as above; details: source organism: Yellow fever virus 17D
HLA-B*27:05 = experiment: as above
HLA-A*02:01 [19] = experiment: IEDB peptide-MHC binding, purified MHC/competitive/fluorescence; filed as Kd, often an IC50 or EC50 that approximates it; ≥ and ≤ were set here for values at or beyond the usual limits of such assays
HLA-A*24:02 = experiment: IEDB peptide-MHC binding, purified MHC/direct/fluorescence; filed as Kd, often an IC50 or EC50 that approximates it; ≥ and ≤ were set here for values at or beyond the usual limits of such assays; details: source organism: Influenza A virus (A/quail/Hong Kong/FY298/00(H9N2))
HLA-B*07:02 = experiment: as above; details: source organism: Influenza A virus (A/quail/Hong Kong/FY298/00(H9N2))
HLA-B*08:01 = experiment: as above; details: source organism: Influenza A virus (A/quail/Hong Kong/FY298/00(H9N2))
HLA-A*02:11 [20] = experiment: as above; details: source organism: Convict Creek 107 virus
HLA-A*02:12 [21] = experiment: as above; details: source organism: Convict Creek 107 virus
HLA-A*02:16 = experiment: as above; details: source organism: Convict Creek 107 virus
HLA-A*29:02 [22] = experiment: as above; details: source organism: Convict Creek 107 virus
HLA-A*02:19 [23] = experiment: as above; details: source organism: Convict Creek 107 virus
HLA-A*68:02 = experiment: as above; details: source organism: Convict Creek 107 virus
HLA-A*23:01 [24] = experiment: as above; details: source organism: Convict Creek 107 virus
HLA-A*02:03 = experiment: as above; details: source organism: Convict Creek 107 virus
[25] = source organism: Salmonella enterica subsp. enterica serovar Typhimurium str. LT2
[26] = source organism: Yellow fever virus 17D
[27] = source organism: Bradyrhizobium diazoefficiens
[28] = source organism: Influenza A virus (A/quail/Hong Kong/FY298/00(H9N2))
[29] = source organism: Orthohantavirus sinnombreense

Measured: Kd

ILNSDDEQA
0.142 µM: HLA-A*02:11 [1]; [25]
0.644 µM: HLA-A*29:02 [5]
1.63 µM: HLA-A*02:19 [8]
≥ 20 µM: HLA-B*15:01 [2] | HLA-B*51:01; [25] | HLA-A*26:01; [25] | HLA-A*02:12 [3] | HLA-A*03:01 [4] | HLA-B*46:01 [6]; [25] | HLA-B*18:01 [7]; [25] | HLA-A*24:03; [25] | HLA-B*27:03; [25] | HLA-A*69:01 [9]; [25] | HLA-A*23:01 [10] | HLA-B*39:01; [25] | HLA-B*57:01 [11]; [25] | HLA-B*15:17; [25]

VRGGMVAPL
≥ 20 µM: HLA-B*15:01 [12]; [26] | HLA-B*15:09; source organism: Yellow fever virus | HLA-B*44:02; [26] | HLA-A*03:01 [13]; [26] | HLA-A*02:01 [14]; [26] | HLA-B*46:01 [15]; [26] | HLA-B*40:01; [26] | HLA-B*18:01 [16]; [26] | HLA-A*01:01; [26] | HLA-A*31:01 | HLA-A*11:01 | HLA-A*69:01 [17]; [26] | HLA-B*48:01 | HLA-B*58:01; [26] | HLA-B*57:01 [18] | HLA-B*27:05; [26]

VTPGPHAQI
0.0704 µM: HLA-A*02:11 [1]; [27]
1.05 µM: HLA-A*02:01 [19]; [27]

ALTLNTMTK
≥ 20 µM: HLA-B*15:01 [12]; [28] | HLA-B*15:09; source organism: Influenza A virus(A/swine/Henan/5/2004(H9N2)) | HLA-B*44:02; [28] | HLA-A*24:02 | HLA-A*02:01 [14]; [28] | HLA-B*46:01 [15]; [28] | HLA-B*07:02 | HLA-B*40:01; [28] | HLA-B*18:01 [16]; [28] | HLA-A*01:01; [28] | HLA-A*69:01 [17]; [28] | HLA-B*58:01; [28] | HLA-B*08:01 | HLA-B*27:05; [28]
0.724 µM: HLA-A*03:01 [13]; source organism: Influenza A virus (A/Puerto Rico/8/34/Mount Sinai(H1N1))

LFPELECFF
0.0008 µM: HLA-A*24:03; [29]
≥ 20 µM: HLA-B*51:01; [29] | HLA-A*26:01; [29] | HLA-A*02:01 [19]; [29] | HLA-B*46:01 [6]; [29] | HLA-B*18:01 [7]; [29] | HLA-B*27:03; [29] | HLA-A*69:01 [9]; [29] | HLA-B*39:01; [29] | HLA-B*57:01 [11]; [29] | HLA-B*15:17; [29] | HLA-A*02:11 [20] | HLA-A*02:12 [21] | HLA-A*02:16 | HLA-A*03:01 [13]; source organism: Convict Creek 107 virus | HLA-A*29:02 [22] | HLA-A*02:19 [23] | HLA-A*68:02 | HLA-A*23:01 [24] | HLA-A*02:03
